According to patent US20200239541A1 (XYPHOS BIOSCIENCES, published 2020):

T1: human NKG2D-Fc (human, UniProt P26718 78-216)
T1 construct: also called natural NKG2D-Fc; not shown: Fc
T1 sequence (looked up): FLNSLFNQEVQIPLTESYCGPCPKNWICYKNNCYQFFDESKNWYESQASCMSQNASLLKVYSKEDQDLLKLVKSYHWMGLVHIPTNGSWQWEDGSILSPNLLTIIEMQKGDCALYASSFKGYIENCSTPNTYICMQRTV

T2: Y152A NKG2D-Fc (Example 5) (human)
T2 construct: also called non-natural Y152A NKG2D; not shown: Fc
T2 chain: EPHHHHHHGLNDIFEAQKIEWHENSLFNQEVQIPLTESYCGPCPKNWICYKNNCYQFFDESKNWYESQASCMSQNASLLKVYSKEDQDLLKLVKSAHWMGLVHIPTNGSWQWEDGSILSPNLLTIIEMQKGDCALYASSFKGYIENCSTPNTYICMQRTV


Target: T1, human NKG2D-Fc
Assay: competition ELISA vs coated WT sMICA, 2 nM human NKG2D-Fc
Source text: To the NKG2DLs in the above example, we directly attached heterologous molecules such as a polypeptide to each of these 4 modified α1-α2 NKG2DLs using a linker peptide. Four His-tagged proteins (SEQ ID NOs.: 25-28) consisting of modified NKG2DLs with attached heterologous molecules were expressed in insect cells and purified to characterize their NKG2D binding affinities and kinetic binding parameters. Using a competitive binding ELISA, we determined the relative NKG2D binding affinities of the 4 modified α1-α2 variants.

Binder	IC50 [µM]
WT α1-α2 domain (soluble wild-type MICA, titrated) (ligand, UniProt Q29983 24-204, looked up, domain: α1-α2; also called WT MICA; WT NKG2DL) EPHSLRYNLTVLSWDGSVQSGFLTEVHLDGQPFLRCDRQKCRAKPQGQWAEDVLGNKTWDRETRDLTGNGKDLRMTLAHIKDQKEGLHSLQEIRVCEIHEDNSTRSSQHFYYDGELFLSQNLETKEWTMPQSSRAQTLAMNVRNFLKEDAMKTKTHYHAMHADCLQELRRYLKSGVVLRRT	0.0194

Target: T2, Y152A NKG2D-Fc (Example 5)
Assay: phage ELISA

Binder	fold selective binding to Y152A NKG2D over natural NKG2D [fold]
ULBP2.S1 (phage clone) (ligand) AAEPHSLSYDITVIPKFRPGPRWCAVQGQVDEKTFLHYDCGNKTVTPVSPLGKKLNVTTAWKAQNPVLREVVDILTEQLWDIQLENYTPKEPLTLQARMSCEQKAEGHSSGSWQFSFDGQIFLLFDSEKRMWTTVHPGARKMKEKWENDKVVATTLYTWSMGDCIGWLEDFLMGMDSTLEPSAGAP	> 10
ULBP2.S2 (phage clone) (ligand) AAEPHSLSYDITVIPKFRPGPRWCAVQGQVDEKTFLHYDCGNKTVTPVSPLGKKLNVTTAWKAQNPVLREVVDILTEQLWDIQLENYTPKEPLTLQARMSCEQKAEGHSSGSWQFSFDGQIFLLFDSEKRMWTTVHPGARKMKEKWENDKVVATLMRIWSMGDCIGWLEDFLMGMDSTLEPSAGAP	> 10
ULBP2.S3 (phage clone) (ligand) AAEPHSLSYDITVIPKFRPGPRWCAVQGQVDEKTFLHYDCGNKTVTPVSPLGKKLNVTTAWKAQNPVLREVVDILTEQLWDIQLENYTPKEPLTLQARMSCEQKAEGHSSGSWQFSFDGQIFLLFDSEKRMWTTVHPGARKMKEKWENDKVVATKLYLWSMGDCIGWLEDFLMGMDSTLEPSAGAP	> 10
ULBP3.S1 (phage clone) (ligand) AAEPHSLWYNFTIIHLPRHGQQWCEVQSQVDQKNFLSYDCGSDKVLSMGHLEEQLYATDAWGKQLEMLREVGQRLRLELADTELEDFTPSGPLTLQVRMSCESEADGYIRGSWQFSFDGRKFLLFDSNNRKWTVVHAGARRMKEKWEKDSGLTTDLIRRSMGDCKSWLRDFLMHRKKRLEPTAP	> 10
ULBP3.S2 (phage clone) (ligand) AAEPHSLWYNFTIIHLPRHGQQWCEVQSQVDQKNFLSYDCGSDKVLSMGHLEEQLYATDAWGKQLEMLREVGQRLRLELADTELEDFTPSGPLTLQVRMSCESEADGYIRGSWQFSFDGRKFLLFDSNNRKWTVVHAGARRMKEKWEKDSGLTTYFYLRSMGDCKSWLRDFLMHRKKRLEPTAP	> 10
MICA25.17 (phage clone) (ligand) EPHSLRYNLTVLSWDGSVQSGFLTEVHLDGQPFLRCDRQKCRAKPQGQWAEDVLGNKTWDRETRDLTGWGTTLLMTLAHIKDQKEGLHSLQEIRVCEIHEDNSTRSSQHFYYDGELFLSQNLETLEWTMPQSSRAQTLAMNVRNFLKEDAMETDIGYRLMRADCLSELRRYLKSGVVLRRTV	> 10
MICA25.18 (phage clone) (ligand) EPHSLRYNLTVLSWDGSVQSGFLTEVHLDGQPFLRCDRQKCRAKPQGQWAEDVLGNKTWDRETRDLTGWGTFLRMTLAHIKDQKEGLHSLQEIRVCEIHEDNSTRSSQHFYYDGELFLSQNLETLEWTMPQSSRAQTLAMNVRNFLKEDAMETDRSGLLMRADCLSELRRYLKSGVVLRRTV	> 10
